Test results taken from patent US20170240595 (published 2017).
Like-named read-outs stand apart in the source and are kept apart here. Bridges are numbered along the chain shown (N, C = ends). Where no end group is shown, it is not given here. [ ]: non-standard residue; d: D form. Bip = N[C@@H](Cc1ccc(-c2ccccc2)cc1)C(=O)O; 2Nal = N[C@@H](Cc1ccc2ccccc2c1)C(=O)O; d2Nal = N[C@H](Cc1ccc2ccccc2c1)C(=O)O; hArg = N=C(N)NCCCC[C@H](N)C(=O)O; 3Pal = N[C@@H](Cc1cccnc1)C(=O)O; Pen = CC(C)(S)[C@H](N)C(=O)O; Nle = CCCC[C@H](N)C(=O)O; Bal = not defined here; GABA = NCCCC(=O)O; βAla = NCCC(=O)O

B1: Ac-Arg-c(Cys-His-D-Phe-Arg-Trp-Gaba-Pen)-NH2 (peptide)
chain: Ac-RCH[dF]RW[GABA][Pen]-NH2
modifications: disulfide 2-8
SMILES: CC(=O)N[C@@H](CCCNC(=N)N)C(=O)N[C@H]1CSSC(C)(C)[C@@H](C(N)=O)NC(=O)CCCNC(=O)[C@H](Cc2c[nH]c3ccccc23)NC(=O)[C@H](CCCNC(=N)N)NC(=O)[C@@H](Cc2ccccc2)NC(=O)[C@H](Cc2c[nH]cn2)NC1=O
B2: Ac-D-Arg-c(Cys-His-D-Phe-Arg-Trp-Gaba-Pen)-NH2 (peptide)
chain: Ac-[dR]CH[dF]RW[GABA][Pen]-NH2
modifications: disulfide 2-8
SMILES: CC(=O)N[C@H](CCCNC(=N)N)C(=O)N[C@H]1CSSC(C)(C)[C@@H](C(N)=O)NC(=O)CCCNC(=O)[C@H](Cc2c[nH]c3ccccc23)NC(=O)[C@H](CCCNC(=N)N)NC(=O)[C@@H](Cc2ccccc2)NC(=O)[C@H](Cc2c[nH]cn2)NC1=O
B3: Ac-Nle-c(Cys-D-Ala-His-D-Phe-Arg-Trp-Gly-Cys)-NH2 (peptide)
chain: Ac-[Nle]C[dA]H[dF]RWGC-NH2
modifications: disulfide 2-9
SMILES: CCCC[C@H](NC(C)=O)C(=O)N[C@H]1CSSC[C@@H](C(N)=O)NC(=O)CNC(=O)[C@H](Cc2c[nH]c3ccccc23)NC(=O)[C@H](CCCNC(=N)N)NC(=O)[C@@H](Cc2ccccc2)NC(=O)[C@H](Cc2c[nH]cn2)NC(=O)[C@@H](C)NC1=O
B4: Ac-Nle-c(Asp-D-Ala-His-D-Phe-Arg-Trp-Lys)-NH2 (peptide)
chain: Ac-[Nle]D[dA]H[dF]RWK-NH2
modifications: lactam 2-8
SMILES: CCCC[C@H](NC(C)=O)C(=O)N[C@H]1CC(=O)NCCCC[C@@H](C(N)=O)NC(=O)[C@H](Cc2c[nH]c3ccccc23)NC(=O)[C@H](CCCNC(=N)N)NC(=O)[C@@H](Cc2ccccc2)NC(=O)[C@H](Cc2c[nH]cn2)NC(=O)[C@@H](C)NC1=O

Experiments:
Assay in all cases: competition
hMC5-R [1] = molecular target: T1, hMC5-R (human, UniProt P33032)
T1 sequence (P33032 whole entry): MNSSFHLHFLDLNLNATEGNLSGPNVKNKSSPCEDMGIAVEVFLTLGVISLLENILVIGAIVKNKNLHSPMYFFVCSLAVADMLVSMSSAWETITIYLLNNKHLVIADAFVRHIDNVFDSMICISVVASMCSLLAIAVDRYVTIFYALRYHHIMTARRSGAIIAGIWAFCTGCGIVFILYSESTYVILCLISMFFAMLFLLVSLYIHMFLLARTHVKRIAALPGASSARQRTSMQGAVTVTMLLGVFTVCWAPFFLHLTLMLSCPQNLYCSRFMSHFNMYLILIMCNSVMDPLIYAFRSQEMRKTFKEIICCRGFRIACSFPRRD

hMC1-R [2] = molecular target: T2, hMC1-R (human, UniProt Q01726)
T2 sequence (Q01726 whole entry): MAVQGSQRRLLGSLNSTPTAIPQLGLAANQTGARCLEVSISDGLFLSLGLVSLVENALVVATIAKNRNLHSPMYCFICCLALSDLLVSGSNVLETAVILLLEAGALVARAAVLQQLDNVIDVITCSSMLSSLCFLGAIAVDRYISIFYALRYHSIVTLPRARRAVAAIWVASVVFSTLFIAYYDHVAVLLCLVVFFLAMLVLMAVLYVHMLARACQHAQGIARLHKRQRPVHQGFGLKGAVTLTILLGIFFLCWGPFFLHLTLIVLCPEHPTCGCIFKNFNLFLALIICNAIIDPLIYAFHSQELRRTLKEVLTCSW

hMC4-R [3] = molecular target: T3, hMC4-R (human, UniProt P32245)
T3 sequence (P32245 whole entry): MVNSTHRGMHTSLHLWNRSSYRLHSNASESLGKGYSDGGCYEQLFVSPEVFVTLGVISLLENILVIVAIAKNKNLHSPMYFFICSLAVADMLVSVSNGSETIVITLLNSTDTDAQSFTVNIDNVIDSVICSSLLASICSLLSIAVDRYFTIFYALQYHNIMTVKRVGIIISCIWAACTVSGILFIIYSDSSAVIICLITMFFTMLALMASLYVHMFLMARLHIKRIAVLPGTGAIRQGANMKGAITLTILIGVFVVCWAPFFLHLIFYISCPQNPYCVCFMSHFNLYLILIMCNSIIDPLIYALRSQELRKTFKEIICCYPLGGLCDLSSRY

hMC3-R [4] = molecular target: T4, hMC3-R (human, UniProt P41968)
T4 sequence (P41968 whole entry): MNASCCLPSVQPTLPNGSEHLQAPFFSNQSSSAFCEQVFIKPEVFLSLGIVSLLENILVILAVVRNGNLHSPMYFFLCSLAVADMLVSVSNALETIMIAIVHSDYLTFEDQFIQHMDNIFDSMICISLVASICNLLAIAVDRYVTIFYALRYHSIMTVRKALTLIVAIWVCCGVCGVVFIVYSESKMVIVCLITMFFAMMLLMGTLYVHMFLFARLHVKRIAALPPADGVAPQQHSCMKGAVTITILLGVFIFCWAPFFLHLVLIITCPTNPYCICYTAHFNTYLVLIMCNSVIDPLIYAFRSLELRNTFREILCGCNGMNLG

hMC4-R [5] = molecular target: T3, hMC4-R; remark: listed apart in the source
hMC3-R [6] = molecular target: T4, hMC3-R; remark: listed apart in the source
hMC5-R [7] = molecular target: T1, hMC5-R; remark: listed apart in the source
hMC1-R [8] = molecular target: T2, hMC1-R; remark: listed apart in the source

Ki (hMC5-R [1])	Ki (hMC1-R [2])	Ki (hMC4-R [3])	Ki (hMC3-R [4])	Ki (hMC4-R [5])	Ki (hMC3-R [6])	Ki (hMC5-R [7])	Ki (hMC1-R [8])	Binder
502 nM	1.81 nM	4.57 nM	20.5 nM					B1
538 nM	3.93 nM	11 nM	172 nM					B2
				3.01 nM	149 nM	339 nM		B3
				50.6 nM	445 nM	4300 nM	4.12 nM	Ac-[Nle]D[dA]H[dF]R[Bal]K-NH2 (lactam 2-8; reading uncertain) [Ac-Nle-c(Asp-D-Ala-His-D-Phe-Arg-Bal-Lys)-NH2]
					151 nM	92.6 nM	21.1 nM	Ac-[Nle]C[3Pal][dF]RW[GABA]C-NH2 (disulfide 2-8) [Ac-Nle-c(Cys-3-Pal-D-Phe-Arg-Trp-Gaba-Cys)-NH2]
				2.55 nM	98.9 nM	4.19 nM	0.659 nM	B4
				21.3 nM		11.1 nM	4.89 nM	Ac-[Nle]D[dA]H[dF]R[Bal]AK-NH2 (lactam 2-9; reading uncertain) [Ac-Nle-c(Asp-D-Ala-His-D-Phe-Arg-Bal-Ala-Lys)-NH2]
						1460 nM	262 nM	CEHXRXAC (cyclic, D-residues) [Ac-c(Cys-Glu-His-D-Phe-Arg-2-Nal-Ala-Cys)-NH2]
				583 nM	3370 nM	1130 nM	5.8 nM	[dF]CH[dF]R[Bip][βAla][dC]T-NH2 (disulfide 2-8 (inferred)) [D-Phe-c(Cys-His-D-Phe-Arg-Bip-β-Ala-D-Cys)-Thr-NH2]
							1.17 nM	Ac-[Nle]DH[d2Nal]RWAK-NH2 (lactam 2-8) [Ac-Nle-c(Asp-His-D-2-Nal-Arg-Trp-Ala-Lys)-NH2]
					4560 nM	8810 nM	132 nM	Ac-C[dA]H[dF]R[2Nal]AC-NH2 (disulfide 1-8 (inferred)) [Ac-c(Cys-D-Ala-His-D-Phe-Arg-2-Nal-Ala-Cys)-NH2]
				14.7 nM				[dF]CH[d(Et)Tyr][hArg]W[βAla][dC]T-NH2 (disulfide 2-8 (inferred)) [D-Phe-c(Cys-His-D-(Et)Tyr-hArg-Trp-β-Ala-D-Cys)-Thr-NH2]
